Measurements from patent US20220348635A1, “COMPOSITIONS AND METHODS FOR NEUROLOGICAL DISEASES” (Coda Biotherapeutics, Inc., priority 2019, published 2022).

What was measured:
Type in all cases: cell-based
Settings in all cases: LX293T YFP reporter cells
[1] = YFP quench plate reader assay, response to ABT-126
In short: (§1)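 Double mutants of engineered chimeric receptor SEQ ID NO:33 are expressed transiently in YFP-reporter LX293T cells and challenged with ligand doses in iodide buffer. Quench is measured on a plate reader over 2 min, giving percent quench […].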

[2] = YFP quench plate reader assay, response to APN-1125
In short: as §1

[3] = YFP quench plate reader assay, response to TC-6987
In short: as §1

B1: Y115D, L131Q in SEQ ID NO: 33: CR-11 (Chemogenic receptor-11): SEQ ID NO: 33 with substitutions Y115D and L131Q (protein)
chain: MRCSPGGVWLALAASLLHVSLQGEFQRKLYKELVKNYNPLERPVANDSQPLTVYFSLSLLQIMDVDEKNQVLTTNIWLQMSWTDHYLQWNVSEYPGVKTVRFPDGQIWKPDILLDNSADERFDATFHTNVQVNSSGHCQYLPPGIFKSSCPMDLKNFPMDVQTCKLKFGSWSYGGWSLDLQMQEADISGYIPNGEWDLVGIPGKRSERFYECCKEPYPDVTFTVTMRRRMGYYLIQMYIPSLLIVILSWISFWINMDAAPARVGLGITTVLTMTTQSSGSRASLPKVSYVKAIDIWMAVCLLFVFSALLEYAAVNFVSRQHKELLRFRRKRRHHKSPMLNLFQEDEAGEGRFNFSAYGMGPACLQAKDGISVKGANNSNTTNPPPAPSKSPEEMRKLFIQRAKKIDKISRIGFPMAFLIFNMFYWIIYKIVRREDVHNQ
modifications: synthetic sequence of chimeric LGIC
[1]; 50 nM ABT-126
  percent quench of YFP fluorescence, 50 nM abt: −1.81%
[1]; 100 nM ABT-126
  percent quench of YFP fluorescence, 100 nM abt: −2.61%
[1]; 300 nM ABT-126
  percent quench of YFP fluorescence, 300 nM abt: −3.78%
[1]; 1 uM ABT-126
  percent quench of YFP fluorescence, 1 uM abt: −2.6%
[2]; 100 nM APN-1125
  percent quench of YFP fluorescence, 100 nM apn: −10.03%
[2]; 1 uM APN-1125
  percent quench of YFP fluorescence, 1 uM apn: −3.33%
[2]; 30 uM APN-1125
  percent quench of YFP fluorescence, 30 uM apn: 6.96%
[3]; 1 uM TC-6987
  percent quench of YFP fluorescence, 1 uM tc6: 38.83%
[3]; 10 uM TC-6987
  percent quench of YFP fluorescence, 10 uM tc6: 31.59%
[3]; 500 uM TC-6987
  percent quench of YFP fluorescence, 500 uM tc6: 29.83%
